Test results as given in patent publication US20090181035A1 (Genentech, published 2009).

T1: PlxD1-Fc (human PlexinD1 ECD Met1 to Ala1271 fused to the Fc portion of human IgG1) (human, UniProt Q9Y4D7 47-1271)
T1 construct: range 1-1271; also called PlexinD1 immunoadhesin; soluble PlexinD1; not shown: Fc portion of human IgG1
T1 sequence (looked up): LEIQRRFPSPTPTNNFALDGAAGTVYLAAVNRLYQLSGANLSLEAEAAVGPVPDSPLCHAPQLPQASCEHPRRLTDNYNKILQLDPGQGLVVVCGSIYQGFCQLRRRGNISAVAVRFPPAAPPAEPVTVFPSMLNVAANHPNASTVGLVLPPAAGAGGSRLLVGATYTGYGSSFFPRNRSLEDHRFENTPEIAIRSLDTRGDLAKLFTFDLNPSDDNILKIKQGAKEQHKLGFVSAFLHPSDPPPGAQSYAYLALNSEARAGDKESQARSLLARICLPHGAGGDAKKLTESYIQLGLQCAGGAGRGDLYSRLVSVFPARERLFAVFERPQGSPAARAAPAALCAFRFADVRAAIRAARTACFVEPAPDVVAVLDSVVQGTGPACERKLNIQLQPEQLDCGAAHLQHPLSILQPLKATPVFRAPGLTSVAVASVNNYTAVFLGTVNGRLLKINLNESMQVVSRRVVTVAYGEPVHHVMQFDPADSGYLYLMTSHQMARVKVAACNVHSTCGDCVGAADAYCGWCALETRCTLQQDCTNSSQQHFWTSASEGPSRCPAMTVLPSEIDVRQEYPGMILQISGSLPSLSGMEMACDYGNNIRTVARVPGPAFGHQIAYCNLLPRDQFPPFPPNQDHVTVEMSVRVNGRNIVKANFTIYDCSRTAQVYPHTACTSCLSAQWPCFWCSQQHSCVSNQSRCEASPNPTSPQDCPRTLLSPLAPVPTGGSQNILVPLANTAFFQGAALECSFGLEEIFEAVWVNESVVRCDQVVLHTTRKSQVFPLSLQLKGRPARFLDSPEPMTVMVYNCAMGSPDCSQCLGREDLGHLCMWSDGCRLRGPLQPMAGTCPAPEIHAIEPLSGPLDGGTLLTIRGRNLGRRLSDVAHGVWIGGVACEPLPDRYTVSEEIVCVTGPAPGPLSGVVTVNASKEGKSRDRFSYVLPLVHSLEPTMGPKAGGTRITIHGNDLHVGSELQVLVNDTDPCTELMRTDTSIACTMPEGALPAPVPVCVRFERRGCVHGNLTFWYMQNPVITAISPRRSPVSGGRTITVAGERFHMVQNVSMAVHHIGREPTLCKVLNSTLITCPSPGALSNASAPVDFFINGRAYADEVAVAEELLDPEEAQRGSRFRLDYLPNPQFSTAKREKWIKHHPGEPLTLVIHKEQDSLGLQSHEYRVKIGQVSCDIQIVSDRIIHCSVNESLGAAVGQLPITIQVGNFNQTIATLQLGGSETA

B1: Sema3E^SD-His (human Semaphorin 3E Ala26 to Arg560 of SEQ ID NO: 1 with an N-terminal Histidine tag) (ligand, not shown: small tags and cut ends)
chain: ADTTHPRLRLSHKELLNLNRTSIFHSPFGFLDLHTMLLDEYQERLFVGGRDLVYSLSLERISDGYKEIHWPSTALKMEECIMKGKDAGECANYVRVLHHYNRTHLLTCGTGAFDPVCAFIRVGYHLEDPLFHLESPRSERGRGRCPFDPSSSFISTLIGSELFAGLYSDYWSRDAAIFRSMGRLAHIRTEHDDERLLKEPKFVGSYMIPDNEDRDDNKVYFFFTEKALEAENNAHAIYTRVGRLCVNDVGGQRILVNKWSTFLKARLVCSVPGMNGIDTYFDELEDVFLLPTRDHKNPVIFGLFNTTSNIFRGHAICVYHMSSIRAAFNGPYAHKEGPEYHWSVYEGKVPYPRPGSCASKVNGGRYGTTKDYPDDAIRFARSHPLMYQAIKPAHKKPILVKTDGKYNLKQIAVDRVEAEDGQYDVLFIGTDNGIVLKVITIYNQEMESMEEVILEELQIFKDPVPIISMEISSKRQQLYIGSASAVAQVRFHHCDMYGSACADCCLARDPYCAWDGISCSRYYPTGTHAKRRFRR
notes: Produced by transient transfection of CHO cells; also called His-tagged Sema3E^SD; soluble Sema3E sema domain construct
B2: Sema3E^SD-Fc (human Semaphorin 3E Met1 to Ala554 of SEQ ID NO: 1 with the Fc portion of human IgG1 as C-terminal fusion partner) (Fc fusion)
chain: ADTTHPRLRLSHKELLNLNRTSIFHSPFGFLDLHTMLLDEYQERLFVGGRDLVYSLSLERISDGYKEIHWPSTALKMEECIMKGKDAGECANYVRVLHHYNRTHLLTCGTGAFDPVCAFIRVGYHLEDPLFHLESPRSERGRGRCPFDPSSSFISTLIGSELFAGLYSDYWSRDAAIFRSMGRLAHIRTEHDDERLLKEPKFVGSYMIPDNEDRDDNKVYFFFTEKALEAENNAHAIYTRVGRLCVNDVGGQRILVNKWSTFLKARLVCSVPGMNGIDTYFDELEDVFLLPTRDHKNPVIFGLFNTTSNIFRGHAICVYHMSSIRAAFNGPYAHKEGPEYHWSVYEGKVPYPRPGSCASKVNGGRYGTTKDYPDDAIRFARSHPLMYQAIKPAHKKPILVKTDGKYNLKQIAVDRVEAEDGQYDVLFIGTDNGIVLKVITIYNQEMESMEEVILEELQIFKDPVPIISMEISSKRQQLYIGSASAVAQVRFHHCDMYGSACADCCLARDPYCAWDGISCSRYYPTGTHA
notes: The construct as cloned starts at Met1; also called Sema3E^SD-Fc immunoadhesin; not shown: Fc portion of human IgG1

What was measured:
[1] = molecular target: T1, PlxD1-Fc (human PlexinD1 ECD Met1 to …); assay: SPR (Biacore 3000, 25 C); PlxD1-Fc amine-coupled on CM5 chip, Sema3E^SD-His as analyte; one-to-one model; SPR, 25 C; PlxD1-Fc on the chip, His-tagged Sema3E^SD as analyte
Experimental: Binding experiments were performed by SPR measurements on a Biacore 3000 instrument (Biacore Inc.) at 25° C. PlxD1-Fc constructed as described in Example 1 was immobilized at high surface density (˜10,000 RU) on an activated CM5 chip using standard amine coupling procedures as described by the manufacturer. PlxD1-Fc was injected at a concentration of 10 μg/ml in 20 mM sodium acetate, pH 4.5 and at a flow rate of 5 μl/min until desired surface densities, measured in response units (RU), were reached. Unreacted groups were blocked by injecting 1 M ethanolamine. To perform binding assays, different concentrations of Sema3E^SD-His were injected in 10 mM HEPES pH 7.4, 150 mM NaCl, 0.005% v/v Surfactant P20, at a flow rate of 5 μl/min. Blank surfaces were used for background corrections. Injections of 10 mM glycine, pH 3.0 at 100 μl/min for 1 min were used to regenerate surfaces between two binding experiments. Kinetic analysis was performed with binding sensorgrams of different analyte concentrations using the BIAevaluation Software (Biacore Inc.). An one-to-one binding model was used to fit the experimental data for association and dissociation reactions. Dissociation constants were calculated from the on and off rates. […] Radioligand cell binding assays were performed and the dissociation constant for Sema3E^SD-Fc binding to HUVECs was calculated to 4 nM.

[2] = molecular target: T2, human PlexinD1 expressed on human umbilical vein endothelial cells (HUVECs) (human, UniProt Q9Y4D7 47-1925); assay: radioligand cell binding assay on HUVECs; radioligand binding on HUVECs (endogenous human PlexinD1); Fc fusion, not His
T2 construct: whole, on cells; Endogenous receptor on primary cells; also called native PlexinD1

[3] = molecular target: T3, murine PlexinD1 expressed on mouse microvascular endothelial (MS1) cells (mouse, UniProt Q3UH93 49-1925); assay: FACS on MS1 cells
T3 construct: whole, on cells; Endogenous receptor on a cell line

Binder | Kd [1] [nM] | Kd [2] [nM] | binding result [3]
B1 | 24 | – | –
B2 | – | 4 | binds
